This passage reports IC50 results from patent US20140087995A1 (published 2014).

In general, IC50 refers to the concentration at which inhibition is half-maximal.

Numbered stars: 1 amine (or outer) side, 2 acyl side, 3 side chain; on linkers, the order of the positions; unused ones are H or OH. Bridge positions count the residues as written; N and C are the ends. Side chains are listed from the residue outwards. Ends that are not written are not given here. * marks the point of attachment. C20 diacid = O=C(O)CCCCCCCCCCCCCCCCCCC(=O)*; γGlu = O=C(O)[C@H](CCC(=O)[*:2])N[*:1]; AEEA = NCCOCCOCC(=O)O

T1: human calcitonin receptor (human, UniProt P30988 25-474)
T1 construct: whole, on cells; also called hCTR; hCT
T1 sequence (looked up): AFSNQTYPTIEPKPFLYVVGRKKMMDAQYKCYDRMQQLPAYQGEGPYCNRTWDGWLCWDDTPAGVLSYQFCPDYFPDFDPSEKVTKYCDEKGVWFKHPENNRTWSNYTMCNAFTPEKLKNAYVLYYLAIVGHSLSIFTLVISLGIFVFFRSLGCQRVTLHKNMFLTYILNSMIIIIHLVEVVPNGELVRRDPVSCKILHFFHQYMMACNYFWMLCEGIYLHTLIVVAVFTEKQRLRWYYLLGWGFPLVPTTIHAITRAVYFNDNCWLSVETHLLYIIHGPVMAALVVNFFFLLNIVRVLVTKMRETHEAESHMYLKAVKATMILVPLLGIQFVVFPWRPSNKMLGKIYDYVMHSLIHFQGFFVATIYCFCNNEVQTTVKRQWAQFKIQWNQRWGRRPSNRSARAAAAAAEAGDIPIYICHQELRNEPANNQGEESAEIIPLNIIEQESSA

B1: N^α1 N^α1-[(4S)-4-carboxy-4-[[(4S)-4-carboxy-4-(19-carboxynonadecanoylamino)butanoyl]amino]butanoyl]-[Glu14,Arg17,Pro21,Pro27]-h-amylin (peptide)
peptide: {C20 diacid-γGlu-γGlu}-KCNTATCATQRLAEFLRHSSPNFGAIPSSTNVGSNTY-NH2
modifications: disulfide 2-7
SMILES: CC[C@H](C)[C@H](NC(=O)[C@H](C)NC(=O)CNC(=O)[C@H](Cc1ccccc1)NC(=O)[C@H](CC(N)=O)NC(=O)[C@@H]1CCCN1C(=O)[C@H](CO)NC(=O)[C@H](CO)NC(=O)[C@H](Cc1c[nH]cn1)NC(=O)[C@H](CCCNC(=N)N)NC(=O)[C@H](CC(C)C)NC(=O)[C@H](Cc1ccccc1)NC(=O)[C@H](CCC(=O)O)NC(=O)[C@H](C)NC(=O)[C@H](CC(C)C)NC(=O)[C@H](CCCNC(=N)N)NC(=O)[C@H](CCC(N)=O)NC(=O)[C@@H](NC(=O)[C@H](C)NC(=O)[C@@H]1CSSC[C@H](NC(=O)[C@H](CCCCN)NC(=O)CC[C@H](NC(=O)CC[C@H](NC(=O)CCCCCCCCCCCCCCCCCCC(=O)O)C(=O)O)C(=O)O)C(=O)N[C@@H](CC(N)=O)C(=O)N[C@@H]([C@@H](C)O)C(=O)N[C@@H](C)C(=O)N[C@@H]([C@@H](C)O)C(=O)N1)[C@@H](C)O)C(=O)N1CCC[C@H]1C(=O)N[C@@H](CO)C(=O)N[C@@H](CO)C(=O)N[C@H](C(=O)N[C@@H](CC(N)=O)C(=O)N[C@H](C(=O)NCC(=O)N[C@@H](CO)C(=O)N[C@@H](CC(N)=O)C(=O)N[C@H](C(=O)N[C@@H](Cc1ccc(O)cc1)C(N)=O)[C@@H](C)O)C(C)C)[C@@H](C)O
notes: also called compound 15
B2: N^α1-[2-[2-[2-[[2-[2-[2-[[(4S)-4-carboxy-4-(19-carboxynonadecanoylamino)butanoyl]amino]ethoxy]ethoxy]acetyl]amino]ethoxy]ethoxy]acetyl]-[Glu14,Arg17,Pro21,Pro27 … (peptide)
peptide: KCNTATCATQRLAEFLRHSSPNFGAIPSSTNVGSNTY
modifications: C20 diacid-gGlu-2xOEG on alpha amino group of N-terminal Lys 1; disulfide Cys2-Cys7; C-terminal amide (as human amylin)
notes: also called compound 19
B3: N^α1-[(4S)-4-carboxy-4-(19-carboxynonadecanoylamino)butanoyl]-[Arg17,Pro21,Pro27,His34]-h-amylin (peptide)
peptide: KCNTATCATQRLANFLRHSSPNFGAIPSSTNVGHNTY
modifications: C20 diacid-gGlu on alpha amino group of N-terminal Lys 1; disulfide Cys2-Cys7; C-terminal amide (as human amylin)
notes: also called compound 40
B4: N^ε1-[2-[2-[2-[[2-[2-[2-[[(4S)-4-carboxy-4-(19-carboxynonadecanoylamino)butanoyl]amino]ethoxy]ethoxy]acetyl]amino]ethoxy]ethoxy]acetyl]-[Arg17,Pro21,Pro27,Glu35 … (peptide)
peptide: K([AEEA-AEEA-γGlu-C20 diacid])CNTATCATQRLANFLRHSSPNFGAIPSSTNVGSETY-NH2
modifications: disulfide 2-7; N-terminus assumed
SMILES: CC[C@H](C)[C@H](NC(=O)[C@H](C)NC(=O)CNC(=O)[C@H](Cc1ccccc1)NC(=O)[C@H](CC(N)=O)NC(=O)[C@@H]1CCCN1C(=O)[C@H](CO)NC(=O)[C@H](CO)NC(=O)[C@H](Cc1c[nH]cn1)NC(=O)[C@H](CCCNC(=N)N)NC(=O)[C@H](CC(C)C)NC(=O)[C@H](Cc1ccccc1)NC(=O)[C@H](CC(N)=O)NC(=O)[C@H](C)NC(=O)[C@H](CC(C)C)NC(=O)[C@H](CCCNC(=N)N)NC(=O)[C@H](CCC(N)=O)NC(=O)[C@@H](NC(=O)[C@H](C)NC(=O)[C@@H]1CSSC[C@H](NC(=O)[C@@H](N)CCCCNC(=O)COCCOCCNC(=O)COCCOCCNC(=O)CC[C@H](NC(=O)CCCCCCCCCCCCCCCCCCC(=O)O)C(=O)O)C(=O)N[C@@H](CC(N)=O)C(=O)N[C@@H]([C@@H](C)O)C(=O)N[C@@H](C)C(=O)N[C@@H]([C@@H](C)O)C(=O)N1)[C@@H](C)O)C(=O)N1CCC[C@H]1C(=O)N[C@@H](CO)C(=O)N[C@@H](CO)C(=O)N[C@H](C(=O)N[C@@H](CC(N)=O)C(=O)N[C@H](C(=O)NCC(=O)N[C@@H](CO)C(=O)N[C@@H](CCC(=O)O)C(=O)N[C@H](C(=O)N[C@@H](Cc1ccc(O)cc1)C(N)=O)[C@@H](C)O)C(C)C)[C@@H](C)O
notes: also called compound 25
B5: N^α1-[(4S)-4-carboxy-4-(19-carboxynonadecanoylamino)butanoyl]-[Arg17,Pro21,Pro27,Arg34]-h-amylin (peptide)
peptide: KCNTATCATQRLANFLRHSSPNFGAIPSSTNVGRNTY
modifications: C20 diacid-gGlu on alpha amino group of N-terminal Lys 1; disulfide Cys2-Cys7; C-terminal amide (as human amylin)
notes: also called compound 39
B6: N^α1-[(4S)-4-carboxy-4-(19-carboxynonadecanoylamino)butanoyl]-[His14,Arg17,Pro21,Pro27,Glu35]-h-amylin (peptide)
peptide: {C20 diacid-γGlu}-KCNTATCATQRLAHFLRHSSPNFGAIPSSTNVGSETY-NH2
modifications: disulfide 2-7
SMILES: CC[C@H](C)[C@H](NC(=O)[C@H](C)NC(=O)CNC(=O)[C@H](Cc1ccccc1)NC(=O)[C@H](CC(N)=O)NC(=O)[C@@H]1CCCN1C(=O)[C@H](CO)NC(=O)[C@H](CO)NC(=O)[C@H](Cc1c[nH]cn1)NC(=O)[C@H](CCCNC(=N)N)NC(=O)[C@H](CC(C)C)NC(=O)[C@H](Cc1ccccc1)NC(=O)[C@H](Cc1c[nH]cn1)NC(=O)[C@H](C)NC(=O)[C@H](CC(C)C)NC(=O)[C@H](CCCNC(=N)N)NC(=O)[C@H](CCC(N)=O)NC(=O)[C@@H](NC(=O)[C@H](C)NC(=O)[C@@H]1CSSC[C@H](NC(=O)[C@H](CCCCN)NC(=O)CC[C@H](NC(=O)CCCCCCCCCCCCCCCCCCC(=O)O)C(=O)O)C(=O)N[C@@H](CC(N)=O)C(=O)N[C@@H]([C@@H](C)O)C(=O)N[C@@H](C)C(=O)N[C@@H]([C@@H](C)O)C(=O)N1)[C@@H](C)O)C(=O)N1CCC[C@H]1C(=O)N[C@@H](CO)C(=O)N[C@@H](CO)C(=O)N[C@H](C(=O)N[C@@H](CC(N)=O)C(=O)N[C@H](C(=O)NCC(=O)N[C@@H](CO)C(=O)N[C@@H](CCC(=O)O)C(=O)N[C@H](C(=O)N[C@@H](Cc1ccc(O)cc1)C(N)=O)[C@@H](C)O)C(C)C)[C@@H](C)O
notes: also called compound 30
B7: N^α1-[(4S)-4-carboxy-4-(19-carboxynonadecanoylamino)butanoyl]-[Arg17,Pro21,Pro27,Lys35]-h-amylin (peptide)
peptide: KCNTATCATQRLANFLRHSSPNFGAIPSSTNVGSKTY
modifications: C20 diacid-gGlu on alpha amino group of N-terminal Lys 1; disulfide Cys2-Cys7; C-terminal amide (as human amylin)
notes: also called compound 34
B8: N^α1-[(4S)-4-carboxy-4-(19-carboxynonadecanoylamino)butanoyl]-[Arg17,Pro21,Pro27,Glu35]-h-amylin (peptide)
peptide: KCNTATCATQRLANFLRHSSPNFGAIPSSTNVGSETY
modifications: C20 diacid-gGlu on alpha amino group of N-terminal Lys 1; disulfide Cys2-Cys7; C-terminal amide (as human amylin)
notes: also called compound 23
B9: N^α1-[(4S)-4-carboxy-4-(19-carboxynonadecanoylamino)butanoyl]-[Arg17,Pro21,Pro27,Pro31,Glu35]-h-amylin (peptide)
peptide: {C20 diacid-γGlu}-KCNTATCATQRLANFLRHSSPNFGAIPSSTPVGSETY-NH2
modifications: disulfide 2-7
SMILES: CC[C@H](C)[C@H](NC(=O)[C@H](C)NC(=O)CNC(=O)[C@H](Cc1ccccc1)NC(=O)[C@H](CC(N)=O)NC(=O)[C@@H]1CCCN1C(=O)[C@H](CO)NC(=O)[C@H](CO)NC(=O)[C@H](Cc1c[nH]cn1)NC(=O)[C@H](CCCNC(=N)N)NC(=O)[C@H](CC(C)C)NC(=O)[C@H](Cc1ccccc1)NC(=O)[C@H](CC(N)=O)NC(=O)[C@H](C)NC(=O)[C@H](CC(C)C)NC(=O)[C@H](CCCNC(=N)N)NC(=O)[C@H](CCC(N)=O)NC(=O)[C@@H](NC(=O)[C@H](C)NC(=O)[C@@H]1CSSC[C@H](NC(=O)[C@H](CCCCN)NC(=O)CC[C@H](NC(=O)CCCCCCCCCCCCCCCCCCC(=O)O)C(=O)O)C(=O)N[C@@H](CC(N)=O)C(=O)N[C@@H]([C@@H](C)O)C(=O)N[C@@H](C)C(=O)N[C@@H]([C@@H](C)O)C(=O)N1)[C@@H](C)O)C(=O)N1CCC[C@H]1C(=O)N[C@@H](CO)C(=O)N[C@@H](CO)C(=O)N[C@H](C(=O)N1CCC[C@H]1C(=O)N[C@H](C(=O)NCC(=O)N[C@@H](CO)C(=O)N[C@@H](CCC(=O)O)C(=O)N[C@H](C(=O)N[C@@H](Cc1ccc(O)cc1)C(N)=O)[C@@H](C)O)C(C)C)[C@@H](C)O
notes: also called compound 28
B10: N^ε1-[2-[2-[2-[[(4S)-4-carboxy-4-(19-carboxynonadecanoylamino)butanoyl]amino]ethoxy]ethoxy]acetyl]-[Ala14,Arg17,Pro21,Pro27,Pro31]-h-amylin (peptide)
peptide: K([AEEA-γGlu-C20 diacid])CNTATCATQRLAAFLRHSSPNFGAIPSSTPVGSNTY-NH2
modifications: disulfide 2-7; N-terminus assumed
SMILES: CC[C@H](C)[C@H](NC(=O)[C@H](C)NC(=O)CNC(=O)[C@H](Cc1ccccc1)NC(=O)[C@H](CC(N)=O)NC(=O)[C@@H]1CCCN1C(=O)[C@H](CO)NC(=O)[C@H](CO)NC(=O)[C@H](Cc1c[nH]cn1)NC(=O)[C@H](CCCNC(=N)N)NC(=O)[C@H](CC(C)C)NC(=O)[C@H](Cc1ccccc1)NC(=O)[C@H](C)NC(=O)[C@H](C)NC(=O)[C@H](CC(C)C)NC(=O)[C@H](CCCNC(=N)N)NC(=O)[C@H](CCC(N)=O)NC(=O)[C@@H](NC(=O)[C@H](C)NC(=O)[C@@H]1CSSC[C@H](NC(=O)[C@@H](N)CCCCNC(=O)COCCOCCNC(=O)CC[C@H](NC(=O)CCCCCCCCCCCCCCCCCCC(=O)O)C(=O)O)C(=O)N[C@@H](CC(N)=O)C(=O)N[C@@H]([C@@H](C)O)C(=O)N[C@@H](C)C(=O)N[C@@H]([C@@H](C)O)C(=O)N1)[C@@H](C)O)C(=O)N1CCC[C@H]1C(=O)N[C@@H](CO)C(=O)N[C@@H](CO)C(=O)N[C@H](C(=O)N1CCC[C@H]1C(=O)N[C@H](C(=O)NCC(=O)N[C@@H](CO)C(=O)N[C@@H](CC(N)=O)C(=O)N[C@H](C(=O)N[C@@H](Cc1ccc(O)cc1)C(N)=O)[C@@H](C)O)C(C)C)[C@@H](C)O
notes: also called compound 72

The experiment has as its target T1, human calcitonin receptor. Description: SPA competition with 125I-calcitonin, membranes of BHK hCTR cells (Assay VII). The procedure: Membranes were prepared in the following way; the cells were rinsed with PBS and incubated with Versene for approximately 5 min before harvesting. The cells were flushed with PBS and the cell-suspension was centrifuged for 5 min at 1000 rpm. Cells were homogenized (Ultrathurrax) in a buffer containing 20 mM Na-HEPES and 10 mM EDTA (pH 7.4) and centrifuged at 20.000 rpm for 15 min. The resulting pellet was resuspended, homogenized and centrifuged (20.000 rpm, 15 min) in a buffer containing 20 mM Na-HEPES and 0.1 mM EDTA (pH 7.4, buffer 2). The resulting pellet was resuspended in buffer 2 and protein concentration was measured (BCA protein Assay, Pierce). The homogenate was kept cold during the whole procedure. The membranes were kept at −80° C. until use. Assay was performed in a 384 well Optiplate (PerkinElmer) in a total volume of 40 ul. Membranes were mixed with SPA beads. Final concentration of membranes 35 ng/μL final and Final concentration of SPA beads was 0.05 mg/well. Test-compounds were dissolved in DMSO and further diluted in assay buffer (50 mM Hepes, pH 7.4, 1 mM CaCl2, 5 mM MgCl₂, 0.1% OA and 0.02% Tween20). […] The final mixture was incubated for 120 min with shaking at 400 rpm at 25° C. prior to centrifugation (1500 rpm, 10 min). Samples were analyzed on TopCounter™ (Packard). The […] was calculated using (one site binding competition analysis) GraphPad Prism5 as a measure of receptor affinity.
Take B1: the IC50 is 15.5 nM. Consider B2, for which the IC50 is 20.4 nM. On to B3, for which the IC50 worked out at 17.1 nM.

On to B4, for which the IC50 stood at 43.4 nM. Then B5, with 19.3 nM. Turning to B6, the half-inhibitory concentration (IC50) came to 21.6 nM. Turning to B7, the IC50 was 73.4 nM. For B8 the value was 21.8 nM; for B9, 12.5 nM; for B10, 42.4 nM.
